One block for each binder: values may come before it.
How the values were obtained:
FGFR4 (acro) [1] = target: T1, FGFR4 (acro) (UniProt P22455 22-369); assay: ELISA, antibody 10 µg/mL
T1 sequence (looked up): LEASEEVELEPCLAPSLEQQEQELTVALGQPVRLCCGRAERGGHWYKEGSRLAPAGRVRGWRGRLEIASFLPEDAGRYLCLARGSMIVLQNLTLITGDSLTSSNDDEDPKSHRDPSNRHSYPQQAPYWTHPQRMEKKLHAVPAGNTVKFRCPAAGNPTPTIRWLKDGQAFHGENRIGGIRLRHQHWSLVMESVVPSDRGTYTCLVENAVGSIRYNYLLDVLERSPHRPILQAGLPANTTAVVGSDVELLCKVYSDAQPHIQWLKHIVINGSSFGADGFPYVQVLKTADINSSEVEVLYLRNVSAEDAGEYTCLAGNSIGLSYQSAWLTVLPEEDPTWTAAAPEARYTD

FGFR2c (acro) [2] = target: T2, FGFR2c (acro) (UniProt P21802 22-377); assay: ELISA
T2 sequence (P21802 22-377): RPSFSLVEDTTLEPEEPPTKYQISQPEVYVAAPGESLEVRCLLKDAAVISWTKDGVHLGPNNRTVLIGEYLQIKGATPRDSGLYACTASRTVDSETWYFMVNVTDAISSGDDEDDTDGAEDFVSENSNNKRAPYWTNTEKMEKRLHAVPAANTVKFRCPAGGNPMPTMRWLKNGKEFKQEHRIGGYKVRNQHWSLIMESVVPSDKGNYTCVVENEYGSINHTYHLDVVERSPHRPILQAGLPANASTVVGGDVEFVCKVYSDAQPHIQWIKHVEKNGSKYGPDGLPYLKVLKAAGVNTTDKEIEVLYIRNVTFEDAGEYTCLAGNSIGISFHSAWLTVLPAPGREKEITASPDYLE

FGFR4 (acro) [3] = target: T1, FGFR4 (acro); assay: ELISA
[4] = target: T3, recombinant cynomolgus monkey FGFR2b (cynomolgus monkey); assay: ELISA, antibody 1ug/mL
T3 construct: extracellular domain; bought; also called cynomolgus macaque FGFR2b

FGFR2c (acro) [5] = target: T2, FGFR2c (acro); assay: ELISA, antibody 10 µg/mL
[6] = target: T4, human FGFR2b (Kaixia Biotechnology, catalog number FGR-HM1BB) (human, UniProt P21802-3 22-378); assay: ELISA, FGFR2b coated at 1 µg/ml
T4 construct: extracellular domain; bought; also called hFGFR2b; human FGFR2b protein
T4 sequence (P21802 other isoform, or with tags, fused parts or gaps): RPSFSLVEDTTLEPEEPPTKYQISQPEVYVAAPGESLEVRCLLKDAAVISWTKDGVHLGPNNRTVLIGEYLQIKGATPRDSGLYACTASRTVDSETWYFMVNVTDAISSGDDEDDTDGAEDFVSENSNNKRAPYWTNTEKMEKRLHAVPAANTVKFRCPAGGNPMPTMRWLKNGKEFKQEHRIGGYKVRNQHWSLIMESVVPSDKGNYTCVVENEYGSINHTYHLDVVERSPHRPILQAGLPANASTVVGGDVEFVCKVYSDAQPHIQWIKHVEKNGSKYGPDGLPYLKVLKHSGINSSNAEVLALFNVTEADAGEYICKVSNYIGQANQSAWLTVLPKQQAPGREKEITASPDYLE

FGFR2b on KATO III cells = target: T5, FGFR2b on KATO III cells (human, UniProt P21802-3 22-822); assay: flow cytometry, KATO III cells
T5 construct: whole, on cells; also called KATO III cells that overexpress FGFR2b
T5 sequence (P21802 other isoform, or with tags, fused parts or gaps): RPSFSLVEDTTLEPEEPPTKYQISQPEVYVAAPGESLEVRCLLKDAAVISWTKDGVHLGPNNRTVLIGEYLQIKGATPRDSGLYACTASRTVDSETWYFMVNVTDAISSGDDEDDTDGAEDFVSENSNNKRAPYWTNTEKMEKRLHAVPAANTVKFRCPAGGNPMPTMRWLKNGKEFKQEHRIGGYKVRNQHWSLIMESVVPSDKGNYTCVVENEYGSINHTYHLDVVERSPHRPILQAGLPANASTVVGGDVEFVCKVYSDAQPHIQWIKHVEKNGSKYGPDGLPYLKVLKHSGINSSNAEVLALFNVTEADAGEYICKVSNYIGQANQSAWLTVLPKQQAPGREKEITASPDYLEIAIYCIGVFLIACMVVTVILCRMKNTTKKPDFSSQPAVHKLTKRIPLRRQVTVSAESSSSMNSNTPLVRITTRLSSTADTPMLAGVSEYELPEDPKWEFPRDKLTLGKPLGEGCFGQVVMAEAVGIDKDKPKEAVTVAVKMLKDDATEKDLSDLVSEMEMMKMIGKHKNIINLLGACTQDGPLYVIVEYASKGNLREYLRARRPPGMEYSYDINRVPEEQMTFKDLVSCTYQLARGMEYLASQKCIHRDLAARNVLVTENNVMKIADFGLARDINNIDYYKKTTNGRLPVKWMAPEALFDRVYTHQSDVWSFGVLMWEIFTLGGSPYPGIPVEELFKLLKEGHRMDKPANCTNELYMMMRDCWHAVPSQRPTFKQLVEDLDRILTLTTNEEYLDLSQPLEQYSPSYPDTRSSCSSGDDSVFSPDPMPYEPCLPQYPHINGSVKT

[7] = target: T4, human FGFR2b (Kaixia Biotechnology, …); assay: BLI, antibody on AHC2 sensor

OD (450 nm) value (FGFR4 (acro) [1]): 0.125
binding result (FGFR2c (acro) [2]): no binding (tested: 10 µg/mL)
binding result (FGFR4 (acro) [3]): no binding (tested: 10 µg/mL)
OD (450 nm) value [4]: 3.15
OD (450 nm) value (FGFR2c (acro) [5]): 0.114
EC50 [6]: 0.0154 µg/mL
EC50 (FGFR2b on KATO III cells): 0.298 µg/mL
Kd [7]: 4.35 nM
koff [7]: 0.00111 s⁻¹
kon [7]: 256000 M⁻¹ s⁻¹
B1: 3E7 scFv-Fc (Fc fusion)
chain: QVQLQQSGAELVKPGASVKMSCKASGYTFTIYNIHWVRQTPGQGLEWIGLIYPDNGDTSYNQKFKAKATLTADKSSSTAYMQLSSLTSEDSAVYYCARGGFDYWGQGTTLTVSSGGGGSGGGGSGGGGSNIVMTQSQKFMSTSVGDRVSVTCKASQNVGTNVAWYQQKPGQSPKALIYSASYRYSGVPDRFTGSGSGTDFTLTISGVQAEDLADYYCQQHYNTPYTFGGGTKLEIKESKYGPPCPPCPAPEAAGGPSVFLFPPKPKDTLMISRTPEVTCVVVDVSQEDPEVQFNWYVDGVEVHNAKTKPREEQFNSTYRVVSVLTVLHQDWLNGKEYKCKVSNKGLPSSIEKTISKAKGQPREPQVYTLPPSQEEMTKNQVSLTCLVKGFYPSDIAVEWESNGQPENNYKTTPPVLDSDGSFFLYSKLTVDKSRWQEGNVFSCSVMHEALHNHYTQKSLSLSLG
notes: scFv-Fc dimer

OD (450 nm) value (FGFR4 (acro) [1]): 0.093
binding result (FGFR2c (acro) [2]): no binding (tested: 10 µg/mL)
binding result (FGFR4 (acro) [3]): no binding (tested: 10 µg/mL)
OD (450 nm) value [4]: 3.14
OD (450 nm) value (FGFR2c (acro) [5]): 0.086
EC50 [6]: 0.0156 µg/mL
EC50 (FGFR2b on KATO III cells): 0.164 µg/mL
Kd [7]: 6.13 nM
koff [7]: 0.00203 s⁻¹
kon [7]: 331000 M⁻¹ s⁻¹
B2: 3F11 scFv-Fc (Fc fusion)
chain: QVQLQQSGAELVKPGASVKMSCKASGYTFAPYNIHWVRQTPGQGLEWIGLIYPDNGDTSYNQKFKAKATLTADKSSSTAYMQLSSLTSEDSAVYYCARGGFDYWGQGTSLTVSSGGGGSGGGGSGGGGSDIVMTQSQKFMSTSVGDRVSVTCKASQNVGTNVAWYQQKPGQSPKALIYSASYRYSGVPDRFTGSGSGTDFTLTISNVQSEDLAEYFCQQHYSTPFTFGSGTKLEIKESKYGPPCPPCPAPEAAGGPSVFLFPPKPKDTLMISRTPEVTCVVVDVSQEDPEVQFNWYVDGVEVHNAKTKPREEQFNSTYRVVSVLTVLHQDWLNGKEYKCKVSNKGLPSSIEKTISKAKGQPREPQVYTLPPSQEEMTKNQVSLTCLVKGFYPSDIAVEWESNGQPENNYKTTPPVLDSDGSFFLYSKLTVDKSRWQEGNVFSCSVMHEALHNHYTQKSLSLSLG
notes: scFv-Fc dimer

OD (450 nm) value (FGFR4 (acro) [1]): 0.157
binding result (FGFR2c (acro) [2]): no binding (tested: 10 µg/mL)
binding result (FGFR4 (acro) [3]): no binding (tested: 10 µg/mL)
OD (450 nm) value [4]: 3.35
OD (450 nm) value (FGFR2c (acro) [5]): 0.093
EC50 [6]: 0.0128 µg/mL
EC50 (FGFR2b on KATO III cells): 0.226 µg/mL
Kd [7]: 8.41 nM
koff [7]: 0.00166 s⁻¹
kon [7]: 198000 M⁻¹ s⁻¹
B3: 3H6 scFv-Fc (Fc fusion)
chain: QVQLQQSGAELVKPGASVKMSCKASGYTFSFYNIHWVRQTPGQGLEWIGLIYPDNGDTSYNQKFKAKATLTADKSSSTAYMQLSSLTSEDSAVYYCARGGFDYWGQGTTLTVSSGGGGSGGGGSGGGGSDIQMTQSPASLSASVGETVTITCRASENIYSYLAWYQQKQGKSPQLLVYNAKTLAEGVPSRFSGSGSGTQFSLKINSLQPEDFGSYYCQHHYGTPYTFGGGTKLEMKESKYGPPCPPCPAPEAAGGPSVFLFPPKPKDTLMISRTPEVTCVVVDVSQEDPEVQFNWYVDGVEVHNAKTKPREEQFNSTYRVVSVLTVLHQDWLNGKEYKCKVSNKGLPSSIEKTISKAKGQPREPQVYTLPPSQEEMTKNQVSLTCLVKGFYPSDIAVEWESNGQPENNYKTTPPVLDSDGSFFLYSKLTVDKSRWQEGNVFSCSVMHEALHNHYTQKSLSLSLG
notes: scFv-Fc dimer
